In the supplement of paper PMC10567573 one finds protein stability index data, which are given here for 52 sequences.

The data set in a line: protein stability index of a GFP-peptide fusion (GPS, HEK-293T) (PSI 1-6); higher = more stable. The following applies: c terminus: a fixed tail appended.

± gives the standard deviation.
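Further: 24-mer peptide tiles fused after GFP, lentivirally expressed, FACS-sorted into six equal bins by GFP/DsRed ratio, decoded by Illumina sequencing, PSI is the read-weighted mean bin number.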

In the case of PKMLVDLLSQKKTISFLGCAIQMF [OR10K2], the protein stability index runs as follows: (treatment: DMSO) 2.84 ± 0.58; (treatment: MLN4924 1 uM, 8 h) 2.93 ± 0.62.

The sequence WIIKKHNTNSDPLDPSFPVEFVRH [POMT2] registered a protein stability index (treatment: DMSO) of 2.54 ± 0.29 and a protein stability index (treatment: MLN4924 1 uM, 8 h) of 2.39 ± 0.51.

Regarding LVQRQMSVIEEDLEEFQLALKHYV [NECAB1], the protein stability index is, setting by setting: (treatment: DMSO) 2.32 ± 0.36; (treatment: MLN4924 1 uM, 8 h) 2.6 ± 0.23.

Take ALVHDHQAYAHYLLATFPRRALAP [ANKRD9]: the protein stability index reads like this: (treatment: DMSO) 2.22 ± 0.21; (treatment: MLN4924 1 uM, 8 h) 2.4 ± 0.19.

In the case of QAAKQIKDGVTMAPAFRLSLKAKV [FSD1], the protein stability index reads like this: (treatment: DMSO) 3 ± 0.23; (treatment: MLN4924 1 uM, 8 h) 3.02 ± 0.33.

Turning to EYIVKKLSRQEFLGMVGLFGTIIS [SLC35F2], the protein stability index is, setting by setting: (treatment: DMSO) 2.43 ± 0.26; (treatment: MLN4924 1 uM, 8 h) 2.44 ± 0.27.

For the sequence SPDSPKGSSETETEPPVALAPGPA [ESRRA], the protein stability index is, setting by setting: (treatment: DMSO) 5.56 ± 0.31; (treatment: MLN4924 1 uM, 8 h) 5.63 ± 0.12.

For the sequence IPAEENASTSTPSSTLVRPIRSRR [FAM189A2], the protein stability index is, setting by setting: (treatment: DMSO) 5.29 ± 0.16; (treatment: MLN4924 1 uM, 8 h) 5.33 ± 0.19.

Take LPPPSALKKGSKEKQADFLDKQMS [NFE2L1]: the protein stability index by setting is: (treatment: DMSO) 4.89 ± 0.24; (treatment: MLN4924 1 uM, 8 h) 4.91 ± 0.29.

As for GGRAYQALHCPTGTEYTCKVYPVQ [TRIB3], the protein stability index is 2.73 ± 0.3 (treatment: DMSO) and 2.76 ± 0.33 (treatment: MLN4924 1 uM, 8 h).

Regarding PLLGVKGDGKSKKKQAGRPKGSKG [RBBP5], the protein stability index is, setting by setting: (treatment: DMSO) 4.88 ± 0.15; (treatment: MLN4924 1 uM, 8 h) 4.88 ± 0.35.

With HMIQGAGSLEKALPIIQSNQVSSN [DLC1], the protein stability index came out at 4.22 ± 0.23 (treatment: DMSO) and 4.27 ± 0.24 (treatment: MLN4924 1 uM, 8 h).

For the sequence LQTVTREKEELLQLSIERGKVLQN [CCDC89], the protein stability index reads like this: (treatment: DMSO) 4.13 ± 0.25; (treatment: MLN4924 1 uM, 8 h) 4.42 ± 0.26.

On to GIPWEAGARQISYSIPEELEKGSF [PCDHGA10], for which the protein stability index runs as follows: (treatment: DMSO) 4.24 ± 0.059; (treatment: MLN4924 1 uM, 8 h) 3.87 ± 0.34.

On to EESYYCRCHRGYTLDPNGKTCSRV [MATN2], for which the protein stability index by setting is: (treatment: DMSO) 2.82 ± 0.53; (treatment: MLN4924 1 uM, 8 h) 3.09 ± 0.55.

With IRGRYLVALGHAYHPEEFVCSQCG [PDLIM7], the protein stability index runs as follows: (treatment: DMSO) 2.51 ± 0.18; (treatment: MLN4924 1 uM, 8 h) 2.77 ± 0.3.

As to LPESGLLSVLQIAQQDLAPDPDAW [FANCE], the protein stability index came to 4.06 ± 0.19 (treatment: DMSO) and 4.01 ± 0.22 (treatment: MLN4924 1 uM, 8 h).

Regarding TADISSHFQEAIDFIDCVREKGGK [DUSP5], the protein stability index came out at 4.4 ± 0.26 (treatment: DMSO) and 4.7 ± 0.22 (treatment: MLN4924 1 uM, 8 h).

For YVTPSDFDQLKQFLTFDKQVLRFY [EFHC1], the protein stability index stood at 2.03 ± 0.32 (treatment: DMSO) and 2.28 ± 0.29 (treatment: MLN4924 1 uM, 8 h).

For DVQSMPKTGILILILSIIFIEGYC [MAGEA10], the protein stability index was found to be 2.86 ± 0.97 (treatment: DMSO) and 2.88 ± 1.2 (treatment: MLN4924 1 uM, 8 h).

Take WLSYRLLKASEPGLFAVGEHTGEV [PCDHGA10]: the protein stability index amounted to 2.35 ± 0.11 (treatment: DMSO) and 2.31 ± 0.16 (treatment: MLN4924 1 uM, 8 h).

On to DYVHISSKPCDLHCTTVDGQRQLM [ADAMTSL2], for which the protein stability index came out at 3.45 ± 0.29 (treatment: DMSO) and 3.44 ± 0.23 (treatment: MLN4924 1 uM, 8 h).

Take VPSKPPMSLEPQNGTYAGPAPAFQ [ANKRD40]: the protein stability index amounted to 4.12 ± 0.41 (treatment: DMSO) and 4.25 ± 0.14 (treatment: MLN4924 1 uM, 8 h).

SLESEEEEYPGITAEDSNDIYILP [BCL2L13]: the protein stability index by setting is: (treatment: DMSO) 5.06 ± 0.22; (treatment: MLN4924 1 uM, 8 h) 5.05 ± 0.23.

Regarding IMLKNISQDERLDVLLTLKHTVKE [IQUB], the protein stability index reads like this: (treatment: DMSO) 2.45 ± 0.56; (treatment: MLN4924 1 uM, 8 h) 2.09 ± 0.34.

In the case of GSGQNEESPRKRKKATEAIDSLRK [FBXO28], the protein stability index (treatment: DMSO) stood at 5.11 ± 0.2 and the protein stability index (treatment: MLN4924 1 uM, 8 h) is 5.17 ± 0.2.

As for GTARYMSINTHLGKEQSRRDDLEA [CSNK1G3], the protein stability index reads like this: (treatment: DMSO) 4.75 ± 0.42; (treatment: MLN4924 1 uM, 8 h) 4.63 ± 0.16.

On to RVVSWLVSAEGSHPDPAPFCADNP [DVL3], for which the protein stability index is, setting by setting: (treatment: DMSO) 2.35 ± 0.3; (treatment: MLN4924 1 uM, 8 h) 2.58 ± 0.24.

As for HAAAVNGDKGALQRLIVGNSALKD [INVS], the protein stability index runs as follows: (treatment: DMSO) 4.29 ± 0.25; (treatment: MLN4924 1 uM, 8 h) 4.29 ± 0.32.

IRALLNLHTDVGSVRMRRAEKSVA [NEK8]: the protein stability index came to 2.42 ± 0.21 (treatment: DMSO) and 2.53 ± 0.19 (treatment: MLN4924 1 uM, 8 h).

Turning to SGETWNPLKLHYQLRNVRERLAKN [GOLPH3], the protein stability index reads like this: (treatment: DMSO) 2.87 ± 0.54; (treatment: MLN4924 1 uM, 8 h) 3.03 ± 0.21.

Consider CQTGGVEDQEEWHAQVVEELSNFK [ZBED1], for which the protein stability index by setting is: (treatment: DMSO) 5.73 ± 0.26; (treatment: MLN4924 1 uM, 8 h) 5.6 ± 0.16.

Take SKFRRKDREDSPERCSDSDEEKKA [CLINT1]: the protein stability index runs as follows: (treatment: DMSO) 5.43 ± 0.27; (treatment: MLN4924 1 uM, 8 h) 5.47 ± 0.14.

With ITKQGDGVDFLSWFLNALHSALGG [USP39], the protein stability index came to 2.22 ± 0.47 (treatment: DMSO) and 2.11 ± 0.21 (treatment: MLN4924 1 uM, 8 h).

In the case of RSIPDTQLEQVIESQKANQCAVLI [ACSBG2], the protein stability index (treatment: DMSO) is 3.54 ± 0.14 and the protein stability index (treatment: MLN4924 1 uM, 8 h) is 3.67 ± 0.47.

In the case of RYLVGEHQADLEVANRHGHTCLMI [FEM1A], the protein stability index stood at 2.19 ± 0.42 (treatment: DMSO) and 2.38 ± 0.24 (treatment: MLN4924 1 uM, 8 h).

With KSCQACRLRKCYEVGMVKCGSRRE [ESR2], the protein stability index (treatment: DMSO) worked out at 2.35 ± 0.43 and the protein stability index (treatment: MLN4924 1 uM, 8 h) was 3.1 ± 0.33.

As to PLTSVCYPQDLPRPLRSREFPQFE [TRAF3IP2], the protein stability index reads like this: (treatment: DMSO) 3.75 ± 0.27; (treatment: MLN4924 1 uM, 8 h) 3.62 ± 0.4.

With ANNDHTVLSLACAGGHLAVVELLL [ANKRD17], the protein stability index is 2.41 ± 0.25 (treatment: DMSO) and 2.42 ± 0.24 (treatment: MLN4924 1 uM, 8 h).

Consider SLKLKSSHHSKHKAPSKLGLIISG [DLC1], for which the protein stability index (treatment: DMSO) is 2.66 ± 0.072 and the protein stability index (treatment: MLN4924 1 uM, 8 h) was 2.77 ± 0.55.

Turning to ARASEGSDSGSDKSLEGGGTAFDA [SMG5], the protein stability index by setting is: (treatment: DMSO) 5.48 ± 0.3; (treatment: MLN4924 1 uM, 8 h) 5.37 ± 0.45.

Regarding LQDGRRKVHYLFPDGKEMAEEYDE [DPCD], the protein stability index reads like this: (treatment: DMSO) 4.7 ± 0.064; (treatment: MLN4924 1 uM, 8 h) 4.72 ± 0.37.

Regarding RPARSTLDELLGRGMATKLLARPG [FBF1], the protein stability index (treatment: DMSO) turned out to be 2.61 ± 0.19 and the protein stability index (treatment: MLN4924 1 uM, 8 h) is 2.63 ± 0.17.

Regarding EHPGGEEVLREQAGGDATENFEDV [CYB5A], the protein stability index runs as follows: (treatment: DMSO) 5.47 ± 0.2; (treatment: MLN4924 1 uM, 8 h) 5.54 ± 0.24.

For the sequence DSGDSKDIRLTLMEEVLLLGLKDK [GOLPH3L], the protein stability index (treatment: DMSO) is 3.24 ± 0.19 and the protein stability index (treatment: MLN4924 1 uM, 8 h) turned out to be 3.25 ± 0.34.

Regarding HCGVLEFVADEGICYLPHWMMQNL [UFD1], the protein stability index is, setting by setting: (treatment: DMSO) 2.57 ± 0.59; (treatment: MLN4924 1 uM, 8 h) 2.13 ± 0.39.

ASFDVCESVDEAGGSGPAGLRAST [RHOBTB2] came in with a protein stability index (treatment: DMSO) of 5.24 ± 0.21 and a protein stability index (treatment: MLN4924 1 uM, 8 h) of 5.02 ± 0.15.

Take MTTLTHRARRTEISKNSEKKMESE [GOLPH3L]: the protein stability index by setting is: (treatment: DMSO) 5 ± 0.55; (treatment: MLN4924 1 uM, 8 h) 5.07 ± 0.18.

Consider FSPDFTLRNTLKSTSEDSLVKQEC [FAN1], for which the protein stability index amounted to 2.67 ± 0.58 (treatment: DMSO) and 3.43 ± 0.85 (treatment: MLN4924 1 uM, 8 h).

On to SSCCLHICQGIRGLWGTTLTENTA [PKD2L1], for which the protein stability index is 2.07 ± 0.21 (treatment: DMSO) and 1.97 ± 0.24 (treatment: MLN4924 1 uM, 8 h).

As to RTMLDFPQHVSSDKEVRAASTEAD [NLN], the protein stability index (treatment: DMSO) stood at 5.55 ± 0.23 and the protein stability index (treatment: MLN4924 1 uM, 8 h) is 4.74 ± 1.4.

DPDEVARRWGKRKNKPKMNYEKLS [ETS1]: the protein stability index runs as follows: (treatment: DMSO) 4.51 ± 0.24; (treatment: MLN4924 1 uM, 8 h) 4.22 ± 0.35.
